Legend:
[1] = biological target: Klebsiella pneumoniae CbpM (residues 2-101) (Klebsiella pneumoniae (strain ATCC 700721/MGH 78578)); experiment: crystal structure; K. pneumoniae CbpM with E. coli CbpA^Jdom, complex separated from excess CbpA^Jdom on Superdex 75; hanging drop, 0.1 M HEPES pH 7, 20% (w/v) PEG 8K; 1.87 Å
[2] = biological target: T1, CbpM (residues 2-101), species not named for the experiment ( (E. coli K-12 or K. …, UniProt P63264 2-101)); experiment: SPR; CbpM immobilised, DnaJ^Jdom variants injected (50 µL/min, 120 s); ProteOn XPR36, 25°C, 50 mM sodium phosphate pH 7.4, 100 mM NaCl, 1 mM DTT, 0.005% Tween 20; steady-state equilibrium fit (one site); details: both partners purified
T1 construct: CbpM residues 2-101; the immobilisation is told there; also called immobilized CbpM; source: E. coli Rosetta pLysS, purified (Ni-NTA, tag cleaved, amylose resin, size exclusion); not shown: His-MBP, N-terminal, cleaved
T1 sequence: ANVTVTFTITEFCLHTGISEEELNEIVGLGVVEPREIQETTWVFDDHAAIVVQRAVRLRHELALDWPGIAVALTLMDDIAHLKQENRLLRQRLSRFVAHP

[3] = biological target: the molecule itself; experiment: crystal structure; K. pneumoniae CbpM with E. coli CbpA^Jdom, complex separated from excess CbpA^Jdom on Superdex 75; hanging drop, 0.1 M HEPES pH 7, 20% (w/v) PEG 8K; 1.87 Å

## J-domain of E. coli CbpA (CbpA^Jdom) (domain or fragment)
[1]
  stoichiometry N (binder:target chains (printed 2:2)): 1

B1: Chimeric DnaJ^Jdom(25-47): DnaJ J-domain with the central region Y25-F47 replaced by that of CbpA^Jdom (domain or fragment, E. coli, UniProt P08622 2-79, looked up)
chain: AKQDYYEILGVSKTAEEREIRKAYRRLARKYHPDVSKEPDAEARFKEIKEAYEVLTDSQKRAAYDQYGHAAFEQGGM
notes: DnaJ of E. coli, J-domain, residues 2-79, with residues 25-47 replaced by residues 25-46 of E. coli CbpA; also called chimera DnaJ^Jdom (25-47); source: E. coli Rosetta pLysS, purified (glutathione sepharose, tag cleaved, size exclusion); not shown: GST, N-terminal, cleaved
[2]
  Kd: 26 µM

B2: Klebsiella pneumoniae CbpM (residues 2-101) (natural protein, UniProt A0A378AXB4 2-101, looked up)
chain: ATVTVTFTITELCLRTGVSEEELTEIVGLGMIEPHQPQADTWLFDDSAVTIVHRAVRLRNELELDWPGIAVALTLLDENARLTRENRLLQQRLARFLAHG
notes: CbpM of Klebsiella pneumoniae (strain ATCC 700721/MGH 78578), residues 2-101, amplified from genomic DNA; Forms a parallel coiled-coil dimer in the crystal; each CbpA J-domain touches both subunits; also called K. pneumoniae CbpM; Klebsiella CbpM; source: E. coli Rosetta pLysS, purified (Ni-NTA, tag cleaved, amylose resin, size exclusion); not shown: His-MBP, N-terminal, cleaved
[3]
  stoichiometry N: 2

Reference: publication PMC4063869, “Structure of CbpA J-Domain Bound to the Regulatory Protein CbpM Explains Its Specificity and Suggests Evolutionary Link between CbpM and Transcriptional Regulators” (PLoS ONE, 2014)
